Results on one substance are retold here after publication PMC2172305.

For the assay, the target named is Crk (UniProt P46108). Briefly: anti-Flag co-IP, anti-HA blot. Conditions: reference: cells infected with noninvasive Shigella; sites Y421,Y466,Y482.

Regarding “cortactin (from UniProt Q60598) cells infected with invasive Shigella”, the fold change entry is “stronger; reference 1”.
